Laboratory results: the supplement of paper PMC7125110
± gives the standard error. This sample holds only a part of the variants without activity.

B1: glmS ribozyme (parent)
chain: AUAAAAGCGCCAGAACUACAGAAAUGUAGUUGACGAGGAGGAGGUUUAUCGAAUUUUCGGCGGAUGCCUCCAAA

Variants of: B1
Assay: self-cleavage kobs at 2500 uM GlcN6P; higher = faster cleavage; RNA array
Conditions: with glucosamine-6-phosphate
Method in brief: (§1)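 Glucosamine-6-phosphate in HEPES/KCl/Mg(OAc)2 buffer, at 40 μM to 10 mM, was flowed over barcoded ribozyme variants transcribed in situ by E. coli RNA polymerase on sequenced MiSeq chips. Tracking was through a hybridised Cy3 probe at 37 °C. kobs, kcat and KM came from exponential decay fits and weighted Michaelis–Menten fits of normalised per-tile medians.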

Variant | self-cleavage kobs at 2500 uM GlcN6P [s⁻¹]
AUAAAGGCGCCCGAACUACAGAAAUGUAGUUGACGACGAGGAGGAUUAUCGAAUUUUCGGCGGAUGCCUUCAAA [A6G A12C G37C U45A C70U] | < 1e-05
AUAAAUGCGCCAGAACUACAGAAAUGUAGUUGUCGAGGAGGAGGUUUAUCGAAUUUUCGGCGGAUGCGUCCAAA [A6U A33U C68G] | < 1e-05
AUAAAAGCGCCAGAAAUACAGAAAUGUAUUUGACGAGGAGGAGGUUUAUCGAAUUUUCGGCGGAUGCUUCUAAA [C16A G29U C68U C71U] | 6.71e-05 ± 2.1e-05
AUAAAAGCGCCAGAACUACAGAAAUGUAGUUGACGAGGAGGAGGUUUAUCGAAUUCUCGGCGGAUGACUCGAAA [U56C C67A C71G] | < 1e-05
AUAAAAGCGCCAGAACUACAGAAAUGUAGGUGACGAGGAGGAUGAUUAUCGAAUUUUCGGCGGAUGCUUCCAAA [U30G G43U U45A C68U] | 0.000375 ± 9.4e-05
AUAAAAGCGCCAGAACUACAGAAAUGUAGGUGACGAGGAGGAGGUUUAUCGAAUAUUCGGGGGAUGCCUCGAAA [U30G U55A C61G C71G] | 5.45e-05 ± 2.4e-05
AUAAAAGCGCCAGAACUACAGAAAUGUAGUUGACGAGGAGGAGGUUUCUCGAAUCUUCGGCGUAUGCCUCCAAA [A48C U55C G63U] | < 1e-05
AUAAAAGCGCCAGAACUACAGAAAUGUAGUUGACGAGGAGGUGGUUUAUCGAGUUUUCGGAGGAUGGCUCCAAA [A42U A53G C61A C67G] | < 1e-05
AUAAAAGCGCCAGAACUACAGAAAUGUAGUUGACGAGGAGGAGGUUACUCUAAUUUUCGGCGGAUGCCUCCAAA [U47A A48C G51U] | < 1e-05
AUAAAAGCGCCAGAACUACAGAAAUGUAGUUGAUGAGGACGAAGUUUAUCGAAUUUUCGGCGGAUGCCUCCAAA [C34U G40C G43A] | < 1e-05
AUAAAAGAGCCAGAACUACAGAAAUGUAGUUGACGAGGAGGAGGGUUAUCGAAGUUUCGGCGGAUACCUCCAAA [C8A U45G U54G G66A] | < 1e-05
AUAAAAGCGCCAGAACUACAGAAAUGUAGUGGCCGAGCGGGAGGUUUAUCGAAUUUUCGGCAGAUGCCUCCAAA [U31G A33C G38C A39G G62A] | < 1e-05
AUAAAAGCGCCAGAACUACAGAAAUGUAGUUGACGAGGAGGAGGUUUAUAGAAUUUUCGGCGGAGGACUCCAAA [C50A U65G C67A] | 8.64e-05 ± 2.2e-05
AUAAAAGCGCCUGAACUACAGAAAUGUAGUUGAUGAGGAGGAGGUUUAUCGAAUUUUCGGCGGAUGCCUCUAAA [A12U C34U C71U] | < 1e-05
AUAAAAGCACCAGGUCUACAGAAAUGUAGUUGACGAGGAGGAGGUUUAUCGAAUAUUCGGCGGAUGCCUCCAAA [G9A A14G A15U U55A] | 7.2e-05 ± 1.6e-05
AUAAAAGCGCGAGAACUACAGAAAUGUAGUUGACGAAGAGGAGGUUUAUCGAAUUUUCGUCGCAUGCCCUCAAA [C11G G37A G60U G63C U69C C70U] | < 1e-05
AUAAAAGCGCCAGAACUACAGAAAUGUAGUUGACGAGGAGGAAGUCUAUCGAGUUUUCGGCGGAUGCCUCCAAA [G43A U46C A53G] | < 1e-05
AUAAAAGCGCCAGAACUACAGAAAUUUAGUUGCAGAGGAGGAGGUUGAUCGAAUUUUCGGCGGAUGCCUCCAAA [G26U A33C C34A U47G] | < 1e-05

Variant | self-cleavage kobs at 2500 uM GlcN6P [s⁻¹]
AUAAAAGCGCCAGACCUACAGAAAUGUAGACGACGAGGAGGAGGUUUAUCGAAUUUUCGGCGGAUGCCUCGAAA [A15C U30A U31C C71G] | 0.000148 ± 5.9e-05
AUAAAAGCGCCAGAAUUACAGAAAUGUAGUUCACGGGGAGGAGGUUUAUCGAAUUUUGCGAGGAUGCCUCCAAA [C16U G32C A36G C58G G59C C61A] | < 1e-05
AUAAAAGCGCCAGAACUACAGAAAUGUAGUUGACGAGGAGAAGGUAUAUCGAAUUUUCGGCGGAUACCUCCAAA [G41A U46A G66A] | 9.01e-05 ± 3.1e-05
AUAAAAGCGCCAGAACUACAGAAAUGUAGUGUACGAGGAGGAGGUUUAUCGAAUUUUCGGCGGAUGCCUCUAAA [U31G G32U C71U] | 0.000775 ± 0.00015
AUAAAAGCGCCAGAACUACAGAAAUGUAGUUGACGAGGCGGAGGUUUAUCGAAUUUUCAGCCGAUGCCUCCAAA [A39C G59A G62C] | < 1e-05
AUAAAAGCGCCAGAACUACAGAAAUGUAGUUGACGAGGAGUAGGUUUAUCGAAUUCUCGGCGGAUGCCUGCAAA [G41U U56C C70G] | 0.00166 ± 0.00032
AUAAAAGCGCCAGAACUACAGAAAUGUAGUUGACGAGGAAGAGGUUUAUCGAAUACUCGGCGGAUGCCUCCAAA [G40A U55A U56C] | 0.000458 ± 0.00017
AUAAAAGCGCCAGAACUACAGAAAUGUAGUUGACGAGGAGGAGGUUUAUCGAAUUUAAGGCGGAUGCCUGCAAA [U57A C58A C70G] | 0.000143 ± 3.9e-05
AUAAAAGCGCCAAAACUACAGAAAUGUAGUUGACGUGGAAGAGGUUUAUCGAAUUUUCGGCGGAUGCCUCCAAA [G13A A36U G40A] | < 1e-05
AUAAAAGCGCCAAAACUACAGAAAUGUAGCUGACGAGGAGGAGGUUUAUCGAAUUUUCAGCGGAUGCCUCCAAA [G13A U30C G59A] | < 1e-05
AUAAAAGCGCCAGAAUUACAGAAAUGUAGUUGACUAGGAGGAGGUUUAUCGAAUUUUCGGCUUAUGCCUCCAAA [C16U G35U G62U G63U] | < 1e-05
AUAAAAGCGCCAGAGCUACAGAAAUGUAGUUCACGAGGAGGAGGUUUAUCGAAUUUUCGGCGGAUGCGUCCAAA [A15G G32C C68G] | < 1e-05
AUAAAAGCGCCAGAACUACAGAAAUGUAGUUGACGAGAAGGAGGUUUAUCGAAUUUUCGGCAUAUGCCUCCAAA [G38A G62A G63U] | < 1e-05
AUAAAAGCGCCAGAAGUACAGAAAUGUAGUUGACGAGGAGGAGGUUUAUCGAAUUUUCUCCGGAUGCGUCCAAA [C16G G59U G60C C68G] | < 1e-05
AUAAAAGCGCCAGAACUACAGAAAUGUAGUUGACGAGGAGGAGGUGUAUCGAAUUUUCCGCGGAUGCUUACAAA [U46G G59C C68U C70A] | < 1e-05
AUAAAUGCGCCAGAACUACAGAAAUGUAGUUGACGAGGAGGAGGUUUAUCGGAUUUUCGGCGGAUGGCUCCAAA [A6U A52G C67G] | 0.000425 ± 0.00018
AUAAAAGCGCGAGAACUACAGAAAUGUAGUUGACGAGGAGGAGGUUUAUUGAAUUUUCGGUGGAUGCCUGCAAA [C11G C50U C61U C70G] | 0.000127 ± 3.7e-05
AUAAAAGCGCGAGAACUACAGAAAUGUAGUUGACGAGGAGGAGGUUUACCGAAUUUUCGGCGGAUGCCUUCAAA [C11G U49C C70U] | < 1e-05

Variants of: B1
Assay: self-cleavage kobs at 10000 uM GlcN6P; higher = faster cleavage; RNA array
Conditions: with glucosamine-6-phosphate
Method in brief: as §1

Variant | self-cleavage kobs at 10000 uM GlcN6P [s⁻¹]
AUAAAAGCGCGAGAACUACAGAAAUGUAGUUGACGAGGAGGAGGUUUAUUGAAUUUUCGGUGGAUGCCUGCAAA [C11G C50U C61U C70G] | 3.43e-05 ± 1.4e-05
